*: point of attachment. MethylRed = CN(C)c1ccc(/N=N/c2ccccc2C(=O)*)cc1; FAM = 5(6)-carboxyfluorescein; peptoid = not defined here; Ahx = NCCCCCC(=O)O
Molecular target: T1, caspase-3 (Homo sapiens, UniProt P42574)
T1 construct: purchased R&D systems, USA
T1 sequence (P42574 29-175 limits assumed): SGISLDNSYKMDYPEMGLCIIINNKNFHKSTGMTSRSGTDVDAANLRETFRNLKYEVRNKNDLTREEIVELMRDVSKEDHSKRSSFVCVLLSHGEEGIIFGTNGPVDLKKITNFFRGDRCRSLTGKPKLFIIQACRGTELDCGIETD
T1 sequence (P42574 176-277 limits assumed): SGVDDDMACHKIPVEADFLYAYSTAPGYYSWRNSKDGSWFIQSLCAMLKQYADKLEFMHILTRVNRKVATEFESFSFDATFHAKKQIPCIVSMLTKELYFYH
Assay: Kinetic assay of fluorogenic substrates with caspase-3
Type: biochemical
Settings: substrate range 0.1–8 μM, enzyme 20 nM (1–9) or 15 nM (10–14), n = 3
Description: The ability of […] (bearing MR as the quencher of choice) to act as s substrate for caspase-3, as well as caspase-7, was investigated by determining the catalytic efficiency (kcat/KM) for each substrate with both enzymes (Table 2).
Caspase-3 or caspase-7 (R&D systems, USA) was added to 100 μL of caspase assay buffer with substrates 1–14 at concentrations from 0.1 μM to 8 μM in a 96-well plate (n = 3) to give final enzyme concentration of 20 nM (1–9) or 15 nM (10–14). Fluorescence (λEx/Em 485/528 nm) was recorded on a Biotek Synergy HT Multi-Mode Microplate Reader every 2 min. Control samples had the same composition but no enzyme. The rate (μM/min) was calibrated using a 5(6)-carboxyfluorescein conversion factor (0.0055 μM/RFU) and data plotted against time (min). For initial cleavage rate (0–5 min), plots were fitted using linear regression analysis and the Michaelis-Menten data generated using GraphPad Prism 5.

Km (fluorescence λEx/Em 485/528 nm, initial rate 0–5 min, Michaelis-Menten): 1.1 ± 0.3 µM | Kcat, Caspase-3: 0.035 ± 0.013 s⁻¹
Substance: substrate 27: FAM-Ahx-Asp-Leu-Pro-Asp-Lys(MR)-Ahx, conjugated to the cell penetrating peptoid at the C-terminus ({FAM-Ahx}-DLPDK(MethylRed)-{Ahx-peptoid}; reading uncertain; also: printed as FAM-Ahx-Asp-Leu-Pro-Asp-Lys(MR)-Ahx)

From article PMC4864350, “Fluorogenic Substrates for In Situ Monitoring of Caspase-3 Activity in Live Cells” (PLoS ONE, 2016)
